According to paper doi:10.1101/426809:
Like-named read-outs stand apart in the source and are kept apart here.

Tests used:
[1] = molecular target: HupA-HaloTag (HupA fused through a GS linker to HaloTag with a C-terminal 6xHis tag) (Clostridium difficile 630Δerm); experiment: cross-linking
[2] = molecular target: HupA-LgBiT (HupA fused to the large subunit of the bitLuc^opt split luciferase) (Clostridium difficile 630Δerm); experiment: split reporter
[3] = molecular target: HupA_(6xHis), C. difficile HupA (CD3496) with a 6x histidine tag (Clostridium difficile 630Δerm); experiment: cross-linking
[4] = molecular target: HupA_(6xHis), C. difficile HupA (CD3496) with a 6x histidine tag (Clostridium difficile 630Δerm); experiment: cross-linking; remark: listed apart in the source
HupAQED6xHis = molecular target: T1, HupAQED6xHis (Clostridium difficile 630Δerm, UniProt Q180Z4 1-92, R55Q;R58E;R61D); experiment: EMSA
T1 sequence: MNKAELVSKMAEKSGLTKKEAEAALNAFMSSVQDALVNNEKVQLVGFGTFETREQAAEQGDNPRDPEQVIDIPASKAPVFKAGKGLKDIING

HupA-HaloTag (HupA fused through a GS linker to HaloTag with a C-terminal 6xHis tag) (natural protein)
stoichiometry N [1]: 2

HupA-SmBiT (HupA fused to the small subunit of the bitLuc^opt split luciferase) (natural protein)
luciferase activity (LU/OD) after 1 h of induction [2]: 265000 LU/OD

HupA_(6xHis), C. difficile HupA (CD3496) with a 6x histidine tag (natural protein)
stoichiometry N [3]: 2
stoichiometry N [4]: 2

B1: oAF65/oAF66, 28.9% G+C (dsDNA)
DNA 1: CATTAAGTATGAGTATTCTATGTATAGATCATTGATGC
DNA 2: GCATCAATGATCTATACATAGAATACTCATACTTAATG
binding result (HupAQED6xHis): no binding

B2: oAF63/oAF64, 52.6% G+C (dsDNA)
DNA 1: CATCAGGCAAGAGTAGTCACTGTGTAGCTCGTGGATGC
DNA 2: GCATCCACGAGCTACACAGTGACTACTCTTGCCTGATG
binding result (HupAQED6xHis): no binding

B3: oAF61/oAF62, 71.1% G+C (dsDNA)
DNA 1: CGCCAGGCCAGGGCTGTCACTGTGCAGCTCGTGGACGC
DNA 2: GCGTCCACGAGCTGCACAGTGACAGCCCTGGCCTGGCG
binding result (HupAQED6xHis): no binding
